{"source": "paper PMC3400562", "about": "(2012)", "binders": {"B1": {"name": "2F5 variant e4W (antibody, V domains shown)", "VH": "RITLKESGPPLVKPTQTLTLTCSFSGFSLSDFGVGVGWIRQPPGKALEWLAIIYSDDDKRYSPSLNTRLTITKDTSKNQVVLVMTRVSPVDTATYFCAHRRGPTTGGLFGWGGPIARGPVNAMDVWGQGITVTISS", "VL": "ALQLTQSPSSLSASVGDRITITCRASQGVTSALAWYRQKPGSPPQLLIYDASSLESGVPSRFSGSGSGTEFTLTISTLRPEDFATYYCQQLHFYPHTFGGGTRVDVR"}, "B2": {"name": "2F5 variant r4W2b (antibody, V domains shown)", "VH": "RITLKESGPPLVKPTQTLTLTCSFSGFSLSDFGVGVGWIRQPPGKALEWLAIIYSDDDKRYSPSLNTRLTITKDTSKNQVVLVMTRVSPVDTATYFCAHRRGPLFWWARGPVNAMDVWGQGITVTISS", "VL": "B1 VL"}, "B3": {"name": "2F5 variant r6W (antibody, V domains shown)", "VH": "RITLKESGPPLVKPTQTLTLTCSFSGFSLSDFGVGVGWIRQPPGKALEWLAIIYSDDDKRYSPSLNTRLTITKDTSKNQVVLVMTRVSPVDTATYFCAHRRGLFGWRGPVNAMDVWGQGITVTISS", "VL": "B1 VL"}, "B4": {"name": "2F5 variant e2W (antibody, V domains shown)", "VH": "RITLKESGPPLVKPTQTLTLTCSFSGFSLSDFGVGVGWIRQPPGKALEWLAIIYSDDDKRYSPSLNTRLTITKDTSKNQVVLVMTRVSPVDTATYFCAHRRGPTTGLFGWGPIARGPVNAMDVWGQGITVTISS", "VL": "B1 VL"}, "B5": {"name": "2F5 variant r4W2a (antibody, V domains shown)", "VH": "B2 VH with W106G, A108W", "VL": "B1 VL"}, "B6": {"name": "2F5 variant r4W2c (antibody, V domains shown)", "VH": "B2 VH with L104W, W106G", "VL": "B1 VL"}, "B7": {"name": "2F5 variant r4W (antibody, V domains shown)", "VH": "B2 VH with W106G", "VL": "B1 VL"}, "B8": {"name": "2F5 variant r4W3 (antibody, V domains shown)", "VH": "B2 VH with L104W, W106G, A108W", "VL": "B1 VL"}, "B9": {"name": "2F5 variant r4WY (antibody, V domains shown)", "VH": "B2 VH with W106G, A108Y", "VL": "B1 VL"}, "B10": {"name": "2F5 variant r4WY2 (antibody, V domains shown)", "VH": "B2 VH with L104Y, W106G, A108Y", "VL": "B1 VL"}, "B11": {"name": "2F5 variant r2W (antibody, V domains shown)", "VH": "RITLKESGPPLVKPTQTLTLTCSFSGFSLSDFGVGVGWIRQPPGKALEWLAIIYSDDDKRYSPSLNTRLTITKDTSKNQVVLVMTRVSPVDTATYFCAHRRGPTLFGWIARGPVNAMDVWGQGITVTISS", "VL": "B1 VL"}}, "key": {"wt MPER peptide [1]": {"molecular_target": "wt MPER peptide (HIV-1)"}, "wt MPER peptide [2]": {"molecular_target": "wt MPER peptide (HIV-1)", "remark": "listed apart in the source"}, "wt MPER peptide [3]": {"molecular_target": "wt MPER peptide (HIV-1)", "remark": "listed apart in the source"}, "wt MPER peptide [4]": {"molecular_target": "wt MPER peptide (HIV-1)", "remark": "listed apart in the source"}}, "note": "Residue numbers refer to the chain shown, from its start. Read-outs that look alike come from different tables or passages of the source."}
{"binder": "B1", "values": [{"measurement": "Kd", "setting": "wt MPER peptide [1]", "result": 145, "unit": "nM"}, {"measurement": "koff", "setting": "wt MPER peptide [2]", "result": 0.0105, "unit": "s⁻¹"}]}
{"binder": "B2", "values": [{"measurement": "Kd", "setting": "wt MPER peptide [1]", "result": 3.94, "unit": "nM"}, {"measurement": "koff", "setting": "wt MPER peptide [2]", "result": 0.0034, "unit": "s⁻¹"}]}
{"binder": "B3", "values": [{"measurement": "Kd", "setting": "wt MPER peptide [1]", "result": 353, "unit": "nM"}, {"measurement": "koff", "setting": "wt MPER peptide [2]", "result": 0.0224, "unit": "s⁻¹"}]}
{"binder": "B4", "values": [{"measurement": "Kd", "setting": "wt MPER peptide [1]", "result": 131, "unit": "nM"}, {"measurement": "koff", "setting": "wt MPER peptide [2]", "result": 0.0105, "unit": "s⁻¹"}]}
{"binder": "B5", "values": [{"measurement": "Kd", "setting": "wt MPER peptide [1]", "result": 2.57, "unit": "nM"}, {"measurement": "koff", "setting": "wt MPER peptide [2]", "result": 0.00106, "unit": "s⁻¹"}]}
{"binder": "B6", "values": [{"measurement": "Kd", "setting": "wt MPER peptide [1]", "result": 5.12, "unit": "nM"}, {"measurement": "koff", "setting": "wt MPER peptide [2]", "result": 0.00112, "unit": "s⁻¹"}]}
{"binder": "B7", "values": [{"measurement": "Kd", "setting": "wt MPER peptide [1]", "result": 79.6, "unit": "nM"}, {"measurement": "koff", "setting": "wt MPER peptide [2]", "result": 0.00681, "unit": "s⁻¹"}]}
{"binder": "B8", "values": [{"measurement": "Kd", "setting": "wt MPER peptide [3]", "result": 2.2, "unit": "nM"}, {"measurement": "koff", "setting": "wt MPER peptide [4]", "result": 0.00174, "unit": "s⁻¹"}]}
{"binder": "B9", "values": [{"measurement": "Kd", "setting": "wt MPER peptide [1]", "result": 2.77, "unit": "nM"}, {"measurement": "koff", "setting": "wt MPER peptide [2]", "result": 0.00055, "unit": "s⁻¹"}]}
{"binder": "B10", "values": [{"measurement": "Kd", "setting": "wt MPER peptide [1]", "result": 5.49, "unit": "nM"}, {"measurement": "koff", "setting": "wt MPER peptide [2]", "result": 0.00193, "unit": "s⁻¹"}]}
{"binder": "B11", "values": [{"measurement": "Kd", "setting": "wt MPER peptide [1]", "result": 29.5, "unit": "nM"}, {"measurement": "koff", "setting": "wt MPER peptide [2]", "result": 0.00435, "unit": "s⁻¹"}]}
